In general, Km refers to the concentration of substrate that gives half-maximal velocity. A word on the kcat: it is the maximal rate divided by the concentration of active sites. As a reminder, the kcat/Km is the second-order rate constant that governs catalysis at low substrate concentration.

The test system of data set [1] is O=P(O)(O)OC[C@@H](O)[C@H]1O[C@H](OP(=O)(O)O)[C@@H](O)[C@@H](O)[C@@H]1O. The data set can be described thus: purified protein. The note with it: 20 mM HEPES pH 8.0, 10 mM MgCl2, 10 mM KCl, 25 °C, 30 min.
Text: (§1) malachite green phosphate release assay, Michaelis-Menten fit on HP0860 protein (H. pylori GmhB)
Data set [2] relates to O=P(O)(O)OC[C@@H](O)[C@H]1O[C@@H](OP(=O)(O)O)[C@@H](O)[C@@H](O)[C@@H]1O. The data set can be described thus: purified protein. The conditions noted are these: 20 mM HEPES pH 8.0, 10 mM MgCl2, 10 mM KCl, 25 °C, 30 min.
Text: as §1

With “HP0860 protein (H. pylori GmhB) (Helicobacter pylori 26695)”, in data set [1], the Km stood at 0.30 ± 0.08 mM, the kcat came out at 1.07 ± 0.1 s⁻¹ and the kcat/Km worked out at 3570 M⁻¹ s⁻¹. Moreover, in data set [2], the Michaelis-Menten constant (Km) came to 0.21 ± 0.05 mM, the kcat came out at 2.18 ± 0.17 s⁻¹ and the kcat/Km worked out at 10400 M⁻¹ s⁻¹.

Values taken from article PMC8204981, “Helicobacter pylori GmhB enzyme involved in ADP-heptose biosynthesis pathway is essential for lipopolysaccharide biosynthesis and bacterial virulence” (Virulence, 2021).
